Laboratory results: the nanobody polyreactivity screen of Harvey et al. (2022)

Assay: yeast display, Sf9 membrane polyspecificity reagent, FACS + sequencing; frameworks hold sequencing errors
Procedure, shortened: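 Synthetic nanobody libraries on Saccharomyces cerevisiae BJ5465 were galactose-induced for 36–48 hours, stained 1 hour at 4 °C with 10% biotinylated, detergent-solubilized Sf9 membrane reagent and enriched on streptavidin microbeads. FACS then separated cells into low and high (top ~1%) gates by anti-HA (expression) and streptavidin (reagent binding) fluorescence. Genes were colony-PCR amplified, MiSeq 2 × 250 sequenced and CDR-length filtered. A clone's polyreactivity label is that of its gate of origin.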

Sequence | polyreactivity (PSR sort gate)
QVQLVESGGGLVQAGGSLRLSCAASGTFERKVMGWYRPAPGKERELVAAISRSGSSTYYADSVKGRFTISRDNAKNTVYLQMNSLKPEDTAVYYCAARGTKQHFNYWGQGTQVTVSS | high polyreactivity
QVQLVESGGGLVQAGGSLRLSCAASGRTFKSYAMGWNRQAPGQERELVATITRDGRTNYADSVKGRFTISRDNAKNTVYLQLNSLKPEDTAVYYCNADSRYRYDYWGQGTQVTVSS | low polyreactivity
QVQLVESGGGLVQAGGSLSLSCAASGRIFRYNAMGWYRQAPGKERELVATISRGGGSTYYADSVKGRFTISRDNAKNTVYLQMNSLKPEYTAVYYCAAVTYSRISGGYDYWGQGTQVTVSS | high polyreactivity
QVQLVESGGGLVQAGGSLRLSCAASGRTFKRKAKGWYRQAPGKEWEFVAVITGSGGSTYYADSVKGRFTISRDNAKNTVYLQMNSLKPEDTAVYYCAAALGLRSTSWGRRGGGGDYWGQGTQVTVSS | high polyreactivity
QVQLVESGGGLVQAGGSLRLICAASGLIFVRNVMGWYRQAPGKERELVAAINLSTGSTYYADSVKGRFTISRDNAKNTVYLQMNCLKPEDTAVYYCAAEYLYWDDLQDYEYWGQGTQVTVSS | low polyreactivity
QVQIVESGGGIVQAGGSLRLSCAASGIIFSGYVMGWYRQAPGKERQLVAAISSGGSKYYADSVKGRFTISRDNAKNTFYLQINSLKPEDTEVYYCAAAGYWTLGYGYWGQGTQVTVSS | low polyreactivity
QVQLVESGGGLVQAGGSLRLICAASGNIFVPSAMGWYRQAPGKERELVAAINGGGSTNYADSVKGRFTISRDNAKNTVYIQMISLKPEDTAVNYCAAVWYFLSLWYDYWGQGTQVTVSS | high polyreactivity
QVQLVESGGGLVQAGGSLRLSCAASGSIFGDYVMGWYRQAPGKERELVAAINRGGSTYYADSVKARFTISRDNAKNTVYLQMNSLKPEDTAVYYCAAGYPSWYYGYPYDSWGQGTQVTVSS | low polyreactivity
QVQLEETGGGLVQAGGSLRISCAASGFIFSYNAMGWYRQAPGKERELVATITRRGGGTTYADSVKGRFTISRDNAKNTVYLQMNSLIPEDTAVYYCNRDVNSKLSFGSVGYDYWGQGTQVTVSS | low polyreactivity
QVQLEESGGGLVQAGGSLRLSCAASGSIFDVYAIGWYRQAPGKERELVAGINSAGSTYYADSVKGRFTISRDNAKNTVYLQMNSLKPEDSAVYYCAAREYILTPGYQWYTYRGYDYWGQGTQVTVSS | low polyreactivity
QVQLVESGGGLVQAGGSLRLSCAASGLIFVKYAMGWYRQAPGKERELVADITSTGGSTYYADSVKGRFTISRDNAKNTVYLQMNSLKPEDTAVYYCATDYGYYDYWGQGTQVTVSS | low polyreactivity
QVHLVESGGGLVKAGGSLRLSCSASGSIFTYNAMGWYRQAPGKERELVAAISSRGTSTYYSDSVKGRFTISRDNAKNTVYLQMNSLKPEDTAVYYCAAVWVSQRRPWGNTNNYWGQGTQVTVSS | high polyreactivity
QVQLVESGGGLVQAGGSLRLSCAASGSTFWYYAMGWFRQAPGKERELVAAITRGASTNYADSVKGRFTISRDNAKNTVYLQMNSLKPEDTAVYYCAAGPARWKGYYWGQGTQVTVSS | high polyreactivity
QVQLVESGGGLVQAGGSLRLSCAASGSTFGLNAMGWYRQAPGKERELVAAITRSDITNYADSVKGRFTISRDNAKNTVYLQMNSLKPEDTAVYYCNKTPDRHRRYFGYGYWGHGTQVTVSS | low polyreactivity
HAQLQESGGGLVQAGGSLRRSCAASGSIFRFSGMGWYRRAPGKERELVASIGFGSITYYADRVKGRFTISRDNANKTVYLQMNSLKPEDTAVYYCAVQVQDESWLDYWGQGTQVTVSC | low polyreactivity
QVQLVESGGGLVQAGGSLRLSCAASGITFWYYAMGWYRQAPGKERELVAAISWDGGSTYYADSVKGRFTISRDNAKNTVYLQMNSLKPEDTAVYYCAAEQYLYTWARHRANFDYWGQGTQVTVSS | high polyreactivity
QVQLVESGGGLVQAGGSLRLSCAASGSIFNWYAMGWYTQAPGKERELVAAISWRCGSTYYADSVKGRFTISRDNAKITVYLQMNSLKPEDTAVYYCAADGGADHMDYWGQGTQVTVSS | high polyreactivity
QVQLVESGGGLVQAGGSLRLSCAASGRIFDDYAMGWYRPAPGKERELVAAISSSGGSTYYADSLKGRFTISRDNAKNTVYLQINSLKPEDTAVYFCAASSFRSYYSGKYDYWGQGTQVTVSS | high polyreactivity
QGQLVESGGGLDQAGVSLRLSCAASGFIFSFDNAMGWYRQAPGTERELVAAISSGTTTHYADSVKGRFTISRDNAKNTVYLQMNSLKPEDSAVYDCAADSVKQVRYGNVGHDDWGQGTQVTVSS | low polyreactivity
QGQLVESGGGLVQAGGSLRLSCAASGFTFWYYAKGWSRQAPRKEREMVAVINTSGASTYADSVKGRFTISRDNAKITVDLQMNSLKPEDTAVYYCAAEGIATYPYDYWGHGTQVTVSS | low polyreactivity
QVQLVESGGGLVQAGGSLRLSCAASGRTFDINAMGWYRQAPGKERELVAAISGRGGRTYYADSVKGRFTISRDNAKNTVYLQMNSLKPEDSAVYYCAARAQWSSLEYWGQGTQVTVSS | high polyreactivity
